Target: ∆14-PrfaH (IncX3 plasmid pHNYX644 …, UniProt A0A0C5EQ24 1-155)
Assay: EMSA

Binder	binding result
TCTGATTCGGGGTCATCCGAGTCGAGAAAACGCCTG (ssDNA) [ss-W10]	binds
TCTAAATCGGGGTCATCCGAGTCGAGAGAGCGCCTG (ssDNA) [ss-W2]	binds
AAAGATTCGGGGTCATCCGAGTCGAGAGAGCGCCTG (ssDNA) [ss-W1]	binds
TCTGATTCGGGGTCATCCGAGTCGAAAGAGCGCCTG (ssDNA) [ss-W9]	binds
TCTGATTCGGGGTCATCCGAGTCGAGAGAGCGCAAA (ssDNA) [ss-W12]	binds
TCTGATTCGGGGTCATCCGAGTCGAGAGAGAAACTG (ssDNA) [ss-W11]	binds

Reference: PMC11880322
